Experimental data: the supplement of paper PMC9732359
± gives the uncertainty stated by the source.

assay: protein stability index of a GFP-peptide fusion (yeast GPS) (PSI 1-4); higher = more stable; sorted into four equal gates, so the index is relative within each strain; conditions: doa10∆
In short: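 Yeast carrying a pooled library were grown to mid-log phase in leucine-free medium. Each library plasmid expresses Cherry and has a tiled 17-residue yeast protein peptide fused downstream of GFP. Cells were sorted into four equal gates by GFP/Cherry ratio, and plasmids from each gate were PCR-amplified, Illumina-sequenced and assigned to strains by barcode. Summing, across gates, the read frequency times the gate number gave each peptide's protein stability index.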

| Sequence | protein stability index |
| --- | --- |
| LPSEDSRAQILQIHSRK [RPT5] | 2.21 ± 0.072 |
| LPSPESLKTKLNSNIRA [SNF5] | 1.52 ± 0.048 |
| LPSWSLGKWYSKEDYET [ARP7] | 1.62 ± 0.17 |
| LPTPTPTEMEPDLDTEC [SWI1] | 2.92 ± 0.05 |
| LPTRYTLDVEAFKSVVS [RPL27A] | 1.33 ± 0.031 |
| LQAFGESESTTNVYSKD [RPB3] | 2.08 ± 0.081 |
| LQAQLDYLNAELGEFFV [FAS2] | 3.06 ± 0.18 |
| LQDLISVYGLDDISRQV [ROX3] | 2.69 ± 0.077 |
| LQDVIALSIADDASSAE [RPC53] | 2.47 ± 0.11 |
| LQEKNSGNLPLNELSAK [RPN13] | 3.19 ± 0.072 |
| LQGDLTFTKKCLENARS [SIR4] | 3.23 ± 0.064 |
| LQHELMISIIKLVTNVV [YML103C/NUP188] | 1.54 ± 0.071 |
| LQKALTVKTNDELMVIY [RPN8] | 2.33 ± 0.11 |
| LQLNEAEEFVAGVSHGT [SMX3] | 3.36 ± 0.25 |
| LQLTTNTEQGDSDELGG [SNM1] | 3.25 ± 0.16 |
| LQPFYSQPTAAGGPDMT [DSN1] | 1.54 ± 0.049 |
| LRAHTDDSRNPDCKIKI [PRE2] | 2.86 ± 0.073 |
| LRASFNKLSSILQNEHD [SRB4] | 2.1 ± 0.1 |
| LRDESLTVDNLSIAIVG [PRE5] | 2.65 ± 0.075 |
| LREHFKNTEEGKALVHH [QCR6] | 2.87 ± 0.11 |
| LRLFNAPDSEYLCFILS [SNF2] | 2.28 ± 0.044 |
| LRLKLFLYEILSSLKSF [SRB8] | 1.53 ± 0.063 |
| LRLTDVTNSLSNEEKEK [GAL11] | 3.14 ± 0.12 |
| LRNNLNSLIEEINERSE [YCG1] | 3.13 ± 0.094 |
| LRPGRIDRKVEFSLPDL [RPT1] | 3.19 ± 0.098 |

| Sequence | protein stability index |
| --- | --- |
| LRRGNYAQRIGSGAPVY [HTA1] | 2.19 ± 0.21 |
| LRRIITDLNQDSAAIIA [GRR1] | 2.64 ± 0.075 |
| LRSIYHQFHDILEEKTD [NSL1] | 2.22 ± 0.062 |
| LSAENIEERLVAIAEQD [SCL1] | 3.22 ± 0.083 |
| LSASWDKTLRLWDVATG [ASC1] | 3.52 ± 0.22 |
| LSEIESLDEILLPANLL [SRP68] | 3.14 ± 0.053 |
| LSESDKKSKLISLYLLN [RPN12] | 2.21 ± 0.17 |
| LSFIQVRIDLGTIDKLQ [RPO31] | 1.37 ± 0.056 |
| LSFVDIVLSKAASALDE [SIR4] | 1.84 ± 0.11 |
| LSLDSDVKFPSNTTTQI [SMC3] | 2.9 ± 0.25 |
| LSLHENYPQDEINAVFN [POP1] | 2.97 ± 0.067 |
| LSPSDQFAPAFLNTPNN [SSN2] | 1.96 ± 0.069 |
| LSSETGIKLALDPNLIT [SRB4] | 2.6 ± 0.052 |
| LSSGESNEIKVTNDLDT [SIR4] | 2.94 ± 0.16 |
| LSSIEASLKIKNATDLQ [SMC3] | 1.84 ± 0.064 |
| LSTLRMEADPSLHPLFE [RPN9] | 2.54 ± 0.057 |
| LSTRELAGKVGSIRVHK [RPC53] | 1.61 ± 0.18 |
| LSVDDIRGAVGNSEAIP [RTT102] | 3.35 ± 0.053 |
| LTCLPVPPPPVRPSISF [RPO21] | 2.28 ± 0.03 |
| LTFMTCNSLHIPQDFEN [ESC2] | 2.17 ± 0.045 |
| LTFQPQQQTNALNGIDI [GRR1] | 2.84 ± 0.067 |
| LTGEATANALPLPAVFS [RPL4A] | 2.02 ± 0.052 |
| LTHRLGGDTCSSDGALC [POP1] | 2.96 ± 0.11 |
| LTIDDLGVASFHGTSTK [FAS2] | 2.99 ± 0.063 |
| LTKTTVNISAVDNTTEQ [YCG1] | 3.25 ± 0.11 |

| Sequence | protein stability index |
| --- | --- |
| LTKYKEMERIVKNLTKY [SRP68] | 2.96 ± 0.069 |
| LTLRKAKAPSGLDQSRI [FAS1] | 3.05 ± 0.12 |
| LTLYLFQDYLTQQAVNL [IRR1] | 2.15 ± 0.095 |
| LTNDTFEKKLSIIKAKL [YML103C/NUP188] | 2.8 ± 0.11 |
| LTNILRMMGCVKKQKSA [FAS2] | 1.91 ± 0.068 |
| LTPNEIKELEHLHDAVF [SWP82] | 2.95 ± 0.072 |
| LTVAMYINSDSVNPAML [RPO31] | 2.4 ± 0.11 |
| LVDILPPDSDSSISVMG [RPT3] | 2.23 ± 0.068 |
| LVEAAKLLKIPKFISEA [YDL116W/NUP84] | 2.65 ± 0.081 |
| LVEEKTPGLTFNAIDLA [RPC82] | 3.23 ± 0.12 |
| LVIGIFKRDLLREKEDK [YJL039C/NUP192] | 2.95 ± 0.098 |
| LVKALEDIMVHYDNTTR [RPO21] | 1.46 ± 0.061 |
| LVLLNGRLRNKSHKQTI [RPP1] | 2.65 ± 0.088 |
| LVLYDAENDVIEATDLG [BRR2] | 3.29 ± 0.13 |
| LVQLEPHLFVNGDLTVS [SSN2] | 1.77 ± 0.1 |
| LVQLKKFSDLKFILQIL [YML103C/NUP188] | 2.15 ± 0.08 |
| LVSANNDNNSPHTPVTR [YLR018C/POM34] | 2.63 ± 0.12 |
| LVSSYLNKSDLLDKYGK [YML103C/NUP188] | 2.87 ± 0.091 |
| LVVRFTNKDIICQIISS [RPL5] | 1.62 ± 0.055 |
| LWDQDIAIAGTGQIEGL [COR1] | 3.12 ± 0.089 |
| LWINYIKELLNITKNLK [POP4] | 1.34 ± 0.071 |
| LWSGKQILSVAIPNGIH [RPO21] | 1.57 ± 0.066 |
| LYDRPLKPDLNKITNQG [NAS6] | 3.22 ± 0.096 |
| LYEKDIVPSMTHLEIEP [RET1] | 2.68 ± 0.098 |
| LYGLNLTLRKAKAPSGL [FAS1] | 2.92 ± 0.089 |

| Sequence | protein stability index |
| --- | --- |
| LYKIFSYALSMEKDKLK [SNU114] | 1.84 ± 0.097 |
| LYPDSSSFKKNLLKFIT [RPN3] | 1.19 ± 0.075 |
| LYQTYHVLVGDLIKFSA [FAS1] | 2.2 ± 0.05 |
| LYSGLIIDEIITQMRVN [RPC82] | 2.12 ± 0.078 |
| LYTLVINDAGKAKKLIQ [RPL38] | 2.06 ± 0.11 |
| MACNFQFPEIAYPGKLI [CSL4] | 2.88 ± 0.12 |
| MADLQKQENSSRFTNVS [YMR153W/NUP53] | 3.23 ± 0.15 |
| MAGLMHFKKPDITVHGE [RRP45] | 2.89 ± 0.19 |
| MAGSQFENGNITGEDEV [RRP45] | 3.02 ± 0.095 |
| MAKTLKDLDGWQVIITD [SIR3] | 1.65 ± 0.16 |
| MAKVHGSLARAGKVKSQ [RPS30A] | 2.38 ± 0.067 |
| MAPYLPGSRASSRFIKG [RPN2] | 2.44 ± 0.059 |
| MASNEVLVLRGTLEGHN [ASC1] | 3.06 ± 0.17 |
| MCGVIVKQYNKKWPQFY [SIN4] | 1.65 ± 0.13 |
| MDKPLNFRILKSFTNDK [SRB5] | 3.15 ± 0.06 |
| MENIKKSIDSKTPEEVE [ISW2] | 2.92 ± 0.17 |
| MENILQRCKSNAISLQL [YIL149C/MLP2] | 1.9 ± 0.046 |
| MESEEVPLTKRYQHLEK [PCI8] | 2.85 ± 0.075 |
| MEYLSGGEKTVAALALL [SMC1] | 2.2 ± 0.15 |
| MFLTRSEYDRGVSTFSP [PUP2] | 3.58 ± 0.21 |
| MFNPLHESYCLPMDTNL [YMR129W/POM152] | 2.39 ± 0.059 |
| MFQSQSQLQPQPQPQPQ [YDL088C/ASM4] | 2.48 ± 0.056 |
| MGDNSQLDFTEFDEQYG [SNF2] | 3.31 ± 0.057 |
| MGPLYQNFAEFMTKLLE [IRR1] | 2.27 ± 0.11 |

same assay, conditions: pdr5∆

| Sequence | protein stability index |
| --- | --- |
| LPSEDSRAQILQIHSRK [RPT5] | 2.39 ± 0.049 |
